Each block holds one substance with its values, some of them ahead of it.
Assays:
[1] = molecular target: purified mouse NPM1 protein (mouse) (UniProt Q61937); assay: native gel or EMSA; in vitro NPM1 oligomerization assay as a5 but without functional LETN (no RNA, scrambled RNA of similar length, or LETN lacking the three NPM1-binding fragments)
[2] = molecular target: purified mouse NPM1 mutant mNPM1-214S/217S (mouse) (UniProt Q61937); assay: native gel or EMSA; in vitro NPM1 oligomerization assay: purified NPM1 sonicated in binding buffer (50 mM Tris pH 7.4, 150 mM NaCl, 0.5% NP-40), incubated at RT with the in vitro transcribed first ~2000 nt of LETN, 10% native PAGE, anti-NPM1 blot
[3] = molecular target: mouse NPM1 reintroduced into NPM1-/- HUH7 cells (mouse) (UniProt Q61937); assay: native gel or EMSA; native PAGE of lysates of NPM1-/- HUH7 cells with reintroduced human or mouse NPM1; control and LETN knockdown

stoichiometry N [1]: 5
Substance: purified mouse NPM1 protein (from UniProt Q61937 1-292) (natural protein)

stoichiometry N [2]: 5
Substance: purified mouse NPM1 mutant mNPM1-214S/217S (from UniProt Q61937 1-292) (natural protein)

stoichiometry N [3]: 5
Substance: mouse NPM1 reintroduced into NPM1-/- HUH7 cells (from UniProt Q61937 1-292) (natural protein)

Source: paper PMC8169757
